Measured values reported in the supplement of paper PMC7877785.
± gives the uncertainty stated by the source.

Assay: self-splicing fitness, log relative to wild type (ln ratio); higher = more splicing; Tetrahymena group I intron in knt gene, E. coli kanamycin selection, DiMSum; sequences stand for … in CUCUCU…GGAGGGAAAAGUUAUCAGGCAUGCACCUGGUAGCUAGUCUUUAAACCAAUAGAUUGCAUCGGUUUAAAAGGCAAGACCGUCAAAUUGCGGGAAAGGGGUCAACAGCCGUUCAGUACCAAGUCUCAGGGGAAACUUUGAGAUGGCCUUGCAAAGGGUAUGGUAAUAAGCUGACGGACAUGGUCCUAACCACGCAGCCAAGUCCUAAGUCAACAGAUCUUCUGUUGAUAUGGAUGCAGUUCACAGACUAAAUGUCGGUCGGGGAAGAUGUAUUCUUCUCAUAAGAUAUAGUCGGACCUCUCCUUAAUGGGAGCUAGCGGAUGAAGUGAUGCAACACUGGAGCCGCUGGGAACUAAUUUGUAUGCGAAAGUAUAUUGAUUAGUUUUGGAGUACUCGUGGUCG
Outline: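 A randomised library covering all eight P1ex-region intron nucleotides was built with the intron in the knt kanamycin-resistance gene on pET-22b(+) and held in E. coli BL21(DE3). Cells were grown overnight at 37°C or 30°C on LB agar, with or without 25 μg/mL kanamycin, plus 100 μg/mL carbenicillin, 50 μM IPTG and 0.2% rhamnose, and pooled colonies were amplicon-sequenced on an Illumina HiSeq 2500. DiMSum fitness is the error-weighted combination of wild-type-normalised replicate fold changes, kanamycin versus none.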

Sequence	self-splicing fitness (ln) (30 °C)	self-splicing fitness (ln) (37 °C)
UUUAAGCAAUAUUACGGAGC	-1.94 ± 0.25	-1.43 ± 0.47
UUUAAGCAAUAUUACGGAUC	-1.33 ± 0.43	
UUUAAGCAAUAUUACGGUGC	-3.88 ± 0.46	-2.01 ± 0.47
UUUAAGCAAUAUUACGUAUG	-1.44 ± 0.13	-0.482 ± 0.16
UUUAAGCAAUAUUACGUCGG	-0.492 ± 0.079	-0.762 ± 0.089
UUUAAGCAAUAUUACGUGUC	-3.99 ± 0.33	-2.65 ± 0.25
UUUCAGCAAUAUUACGAGGC	-2.12 ± 0.22	
UUUCAGCAAUAUUACGAGGG	-3.94 ± 0.25	-1.02 ± 0.13
UUUCAGCAAUAUUACGCAGA	-1.32 ± 0.27	-1.6 ± 0.24
UUUCAGCAAUAUUACGCAGG	-2.53 ± 0.18	-1.65 ± 0.23
UUUCAGCAAUAUUACGCAUA	-2.13 ± 0.21	-0.691 ± 0.17
UUUCAGCAAUAUUACGCCCC	-1.57 ± 0.3	
UUUCAGCAAUAUUACGCUGA	-3.32 ± 0.47	-2.24 ± 0.42
UUUCAGCAAUAUUACGCUUC	-0.771 ± 0.21	-2.33 ± 0.38
UUUCAGCAAUAUUACGUCAG	-0.968 ± 0.089	-0.726 ± 0.12
UUUCAGCAAUAUUACGUCGA	-1.11 ± 0.11	-1.25 ± 0.12
UUUCAGCAAUAUUACGUGCC	-3.44 ± 0.25	-1.57 ± 0.23
UUUCAGCAAUAUUACGUGUA	-2.47 ± 0.12	-1.57 ± 0.1
UUUCAGCAAUAUUACGUUCU		-1.89 ± 0.21

Sequence	self-splicing fitness (ln) (30 °C)	self-splicing fitness (ln) (37 °C)
UUUCAGCAAUAUUACGUUGA		-1.85 ± 0.34
UUUCAGCAAUAUUACGUUGU	-3.23 ± 0.21	-2.06 ± 0.15
UUUCAGCAAUAUUACGUUUU	-3.86 ± 0.23	-1.13 ± 0.14
UUUGAGCAAUAUUACGAGCG		-1.88 ± 0.35
UUUGAGCAAUAUUACGCAAA	-2.8 ± 0.25	-2.25 ± 0.21
UUUGAGCAAUAUUACGCCAA		-1.56 ± 0.27
UUUGAGCAAUAUUACGCCGA	-2.3 ± 0.42	-1.61 ± 0.41
UUUGAGCAAUAUUACGCCUC		-0.879 ± 0.39
UUUGAGCAAUAUUACGCGAC	-2.15 ± 0.35	
UUUGAGCAAUAUUACGGACU	-4.55 ± 0.34	-2.99 ± 0.23
UUUGAGCAAUAUUACGGCCU	-3.9 ± 0.4	0.167 ± 0.26
UUUGAGCAAUAUUACGGCGC	-2.21 ± 0.35	
UUUGAGCAAUAUUACGGGGU		-2.11 ± 0.26
UUUGAGCAAUAUUACGGUCA	-1.47 ± 0.28	-3.07 ± 0.4
UUUGAGCAAUAUUACGGUCG	-3.78 ± 0.21	-1.73 ± 0.19
UUUGAGCAAUAUUACGUCGG	-3.06 ± 0.21	-1.28 ± 0.18
UUUGAGCAAUAUUACGUCUU	-3.77 ± 0.32	-3.16 ± 0.43
UUUGAGCAAUAUUACGUUGG	-3.37 ± 0.28	-2.26 ± 0.26
UUUGAGCAAUAUUACGUUUU	-3.55 ± 0.19	-2.65 ± 0.17

Sequence	self-splicing fitness (ln) (30 °C)	self-splicing fitness (ln) (37 °C)
UUUUAGCAAUAUUACGACCA	-0.399 ± 0.34	-0.577 ± 0.37
UUUUAGCAAUAUUACGACCG	1.81 ± 0.28	-1.19 ± 0.4
UUUUAGCAAUAUUACGAGUG	-1.75 ± 0.13	-1.26 ± 0.13
UUUUAGCAAUAUUACGAGUU		-0.193 ± 0.24
UUUUAGCAAUAUUACGAUAG	-0.792 ± 0.26	-0.639 ± 0.46
UUUUAGCAAUAUUACGAUCU	-0.719 ± 0.13	-0.72 ± 0.15
UUUUAGCAAUAUUACGCACU	-0.447 ± 0.12	-0.218 ± 0.15
UUUUAGCAAUAUUACGCCAG	-2.13 ± 0.47	
UUUUAGCAAUAUUACGCCCG	-0.629 ± 0.33	
UUUUAGCAAUAUUACGCCUA	-1 ± 0.2	-0.553 ± 0.22
UUUUAGCAAUAUUACGCGUG	-0.683 ± 0.088	-0.0858 ± 0.096
UUUUAGCAAUAUUACGCUUA	-1.1 ± 0.16	-0.69 ± 0.15
UUUUAGCAAUAUUACGGCUG	-0.732 ± 0.48	-0.495 ± 0.38
UUUUAGCAAUAUUACGGGGA	-1.56 ± 0.16	-0.366 ± 0.14
UUUUAGCAAUAUUACGGUUU	-3.26 ± 0.47	-0.0249 ± 0.25
UUUUAGCAAUAUUACGUAGU	-1.9 ± 0.37	
UUUUAGCAAUAUUACGUAUA	-2.59 ± 0.42	
UUUUAGCAAUAUUACGUGCG	-1.42 ± 0.17	-0.84 ± 0.13
UUUUAGCAAUAUUACGUGCU	-2.43 ± 0.47	-0.459 ± 0.22
